Laboratory results reported in patent US20210179710A1, “COMBINATION IMMUNOTHERAPY AND CHEMOTHERAPY FOR THE TREATMENT OF A HEMATOLOGICAL MALIGNANCY” (Actinium Pharmaceuticals, Inc., priority 2018, published 2021).
Like-named read-outs stand apart in the source and are kept apart here.

Key:
[1] = system: relapsed or refractory AML and CML; settings: cited from earlier work
CD33 [2] = target: T1, CD33 (Homo sapiens, UniProt P20138); settings: higher than M195; cited from earlier work
CD33 [3] = target: T1, CD33; settings: human peripheral blood mononuclear cells as effectors, cited from earlier work
AML [4] = assay: Phase 2 portion, monotherapy without LDAC in AML patients unfit for cytotoxic chemotherapy; assay type: in vivo, human
Description: (§1) Preliminary data are available on 9 with median age 75 years (range, 65-82) and PS median 2 (0-1 in 2 patients, […], & 3 in 2 patients). Six (67%) had prior treatment for AHDs (5 MDS, 1 atypical CML). At baseline, 5 patients had ANC≥500/μL, only 2 had ANC≥1000/μL, and only 1 had platelets >50,000/μL.
The 30-day mortality rate was 33% (disease progression, acute on chronic respiratory failure, and post-traumatic intracranial hemorrhage after a fall).
Objective responses were documented in 5 of the 9 patients (56%): 2 Complete Remissions with incomplete platelet count recovery (CRp) and 3 Complete Remissions with incomplete hematologic recovery (CRi). Two patients had resistant disease.
The two patients with CRp had neutrophil recovery at Days 60 and 36. Two of the patients with CRi had not reached ANC≥500/μL when they expired from infection on days 65 and 56, and the third is at day 66+ without ANC recovery. Since patients with antecedent hematologic disorders (AHDs) may not have capacity to recover to normal neutrophil production, patients without AHDs may be more informative. Of the 3 patients without AHDs, 1 had ANC recovery at Day 36, 1 had death from infection at Day 56 without ANC recovery, and 1 is pending ANC recovery at Day 66+. […]

relapsed/refractory AML = assay: Dose escalation (MTD) in patients with relapsed/refractory AML; assay type: in vivo, human
Experimental: A maximum tolerated dose (MTD) of a single injection of the radiolabeled lintuzumab was determined to be 3 uCi/kg patient weight. As a split dose (e.g., 2 equal doses administered 4-7 days apart), the MTD was determined to be 2 uCi/kg per dose, or 4 uCi/kg total. […] Determination of MTD was based on the severity of the adverse effects observed at each dose level. Anti-leukemic effects included elimination of peripheral blood blasts in 13 of 19 evaluable patients. Twelve of 18 patients who were evaluable at 4 weeks following treatment had reductions in bone marrow blasts, including nine with reductions ≥50%. Three patients treated with 1 uCi/kg, 3 uCi/kg and 4 uCi/kg respectively had ≤5% blasts after therapy.

HL60 (leukemia cells) = assay: Cytotoxicity against HL60 cell suspensions; assay type: cell-based
[5] = system: peripheral blood and bone marrow cells; assay: Reactivity with peripheral blood and bone marrow cells from frozen tissues; assay type: binding; settings: nonhuman primate and human frozen tissues
AML [6] = assay: Phase 1 clinical trial, fractionated doses combined with low dose Ara-C (LDAC); assay type: in vivo, human; settings: fractionated doses on days 1 and 8 combined with LDAC
Description: as §1

[7] = four clinical trials, native HuM195 alone
[8] = 2 μCi/kg/fraction monotherapy, preliminary
[9] = 2 equal doses administered 4-7 days apart

T1 sequence (P20138 18-364): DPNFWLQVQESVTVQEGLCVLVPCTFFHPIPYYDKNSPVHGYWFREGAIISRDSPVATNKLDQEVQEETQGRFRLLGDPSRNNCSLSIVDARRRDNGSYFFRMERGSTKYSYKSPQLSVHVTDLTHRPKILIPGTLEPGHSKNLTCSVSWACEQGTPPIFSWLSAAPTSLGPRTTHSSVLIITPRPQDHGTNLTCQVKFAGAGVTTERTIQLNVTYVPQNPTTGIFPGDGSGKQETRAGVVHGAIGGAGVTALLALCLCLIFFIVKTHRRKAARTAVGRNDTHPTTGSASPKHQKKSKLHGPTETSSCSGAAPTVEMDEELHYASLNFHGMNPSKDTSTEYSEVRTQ

HuM195: recombinant humanized anti-CD33 monoclonal antibody
single agent activity in AML ([1]; even at supra-saturating doses that fully blocked CD33 binding sites throughout a 4-week period): very modest activity | human anti-human antibody responses [1, 7]: not seen | most common toxicities [1, 7]: Fever, chills, and nausea | reduction in marrow blast cells [1, 7]: seen in some patients | binding avidity relative to M195 (CD33 [2]): greater than 8 fold | antibody-dependent cell-mediated cytotoxicity (ADCC) (CD33 [3]): induced antibody-dependent cell-mediated cytotoxicity | antibody-dependent cell-mediated cytotoxicity (ADCC) (CD33 [3]; listed as lintuzumab): demonstrated antibody-dependent cell-mediated cytotoxicity

lintuzumab-Ac^225: Lintuzumab conjugated with Actinium-225 (Ac^225)
30-day mortality rate (AML [4]; 2 μCi/kg/fraction): 33% | Grade >3 non-hematologic toxicities reported in ≥1 pt (AML [4]; 2 μCi/kg/fraction): pneumonia and cellulitis | platelet counts >20,000/μL without transfusions (AML [4]; 2 μCi/kg/fraction): No patients reached platelet counts >20,000/μL without transfusions | veno-occlusive disease (AML [4]; 2 μCi/kg/fraction): did not occur | objective response rate (AML [4]; [8]): 56% | objective responses (patients) (AML [4]; [8]): 5 of the 9 | myelosuppression (AML [4]; 2 μCi/kg/fraction, days 1 and 8, preliminary data on 9 patients): seen in all evaluable patients | grade 4 thrombocytopenia with marrow aplasia for >6 weeks following therapy (AML [4]; 2 μCi/kg/fraction, preliminary data on 9 patients): 3 patients | median time to neutrophil recovery (ANC≥500/μL) (AML [4]; from the first dose, range 20-60): 36 days | Complete Remissions with incomplete hematologic recovery (CRi) (AML [4]; of 9 patients): 3 | Complete Remissions with incomplete platelet count recovery (CRp) (AML [4]; of 9 patients): 2 | patients with resistant disease (AML [4]; of 9 patients): Two | elimination of peripheral blood blasts (relapsed/refractory AML; 0.5 uCi/kg to 4 uCi/kg): 13 of 19 | MTD, split dose, per dose (relapsed/refractory AML; [9]): 2 uCi/kg per dose | MTD, split dose, total (relapsed/refractory AML; [9]): 4 uCi/kg total | patients with reductions in bone marrow blasts ≥50% (relapsed/refractory AML; of 18 evaluable at 4 weeks): nine | maximum tolerated dose (MTD), single injection (relapsed/refractory AML; single injection): 3 uCi/kg patient weight | patients with ≤5% blasts after therapy (relapsed/refractory AML; treated with 1 uCi/kg, 3 uCi/kg and 4 uCi/kg respectively): Three | dose at which 50% of the cells were killed (LD50) (HL60 (leukemia cells)): 8 μCi per mL of cell suspension | reactivity with peripheral blood and bone marrow cells (specificity) [5]: reactivity with mononuclear cells only | dose at which treatment induced remissions (AML [6]): above 0.5 uCi/kg/fraction
